Results from patent US11433099B2, “Immunotherapy with B*08 restricted peptides and combination of peptides against cancers and related methods” (Immatics Biotechnologies GmbH, priority 2018, dated 2022).

Assays:
HLA-B*44:05 = HLA-B*44:05 (Homo sapiens, UniProt P01889, A223V/A65T/A93T/A95T/D201E/D98Y/E176V/E187L/E204Q/E69K/G107R/H137Y/K202T/L105A/L119I/N104T/N87E/Q56L/Q94N/R106L/R155S/R180D/S101N/S121R/S35A/S48T/T118I/V36M/W191S/Y91S); assay: MHC binding assay (UV-ligand exchange, beta2m ELISA); settings: Table 11B, peptide exchange yield
Summary of the method: (§1)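 Peptide–HLA complexes generated by UV-ligand exchange of a UV-cleavable peptide for the test peptide; exchange yield read by β2m ELISA on streptavidin capture (samples diluted 100-fold, 1 h 37 °C), HRP anti-β2m, TMB, A450. Quantified against refolded HLA-A*02:01/MLA-001 monomer standards (15-500 ng/ml).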

HLA-B*08:01 = HLA-B*08:01 (Homo sapiens, UniProt P01889); assay: as above; settings: MHC class I binding score; binding to HLA-B*08:01 ranged by peptide exchange yield (UV-ligand exchange, β2m ELISA)
Summary of the method: as §1

[1] = tested on: CD8+ T cells of healthy HLA-B*08 donors; assay: In vitro T-cell priming assay with aAPCs loaded with peptide/MHC complexes and anti-CD28 antibody, pMHC multimer readout; format: cell-based, human; settings: in vitro immunogenicity, HLA class I peptides, Table 10B
From the text: In order to obtain information regarding the immunogenicity of the TUMAPs of the present invention, the inventors performed investigations using an in vitro T-cell priming assay based on repeated stimulations of CD8+ T cells with artificial antigen presenting cells (aAPCs) loaded with peptide/MHC complexes and anti-CD28 antibody.
In order to perform in vitro stimulations by artificial antigen presenting cells loaded with peptide-MHC complex (pMHC) and anti-CD28 antibody, the inventors first isolated CD8+ T cells from fresh HLA-B*08 leukapheresis products via positive selection using CD8 microbeads (Miltenyi Biotec, Bergisch-Gladbach, Germany) of healthy donors obtained from the University clinics Mannheim, Germany, after informed consent.
PBMCs and isolated CD8+ lymphocytes were incubated in T-cell medium (TCM) until use consisting of RPMI-Glutamax (Invitrogen, Karlsruhe, Germany) supplemented with 10% heat inactivated human AB serum (PAN-Biotech, Aidenbach, Germany), 100 U/ml Penicillin/100 μg/ml Streptomycin (Cambrex, Cologne, Germany), 1 mM sodium pyruvate (CC Pro, Oberdorla, Germany), 20 μg/ml Gentamycin (Cambrex). 2.5 ng/ml IL-7 (PromoCell, Heidelberg, Germany) and 10 U/ml IL-2 (Novartis Pharma, Nornberg, Germany) were also added to the TCM at this step.
Generation of pMHC/anti-CD28 coated beads, T-cell stimulations and readout was performed in a highly defined in vitro system using four different pMHC molecules per stimulation condition and 8 different pMHC molecules per readout condition.
The purified co-stimulatory mouse IgG2a anti human CD28 Ab 9.3 (Jung et al., 1987) was chemically biotinylated using Sulfo-N-hydroxysuccinimidobiotin as recommended by the manufacturer (Perbio, Bonn, Germany). Beads used were 5.6 μm diameter streptavidin coated polystyrene particles (Bangs Laboratories, Illinois, USA).
800.000 beads/200 μl were coated in 96-well plates in the presence of 4×12.5 ng different biotin-pMHC, washed and 600 ng biotin anti-CD28 were added subsequently in a volume of 200 μl. Stimulations were initiated in 96-well plates by co-incubating 1×10^6 CD8+ T cells with 2×10^5 washed coated beads in 200 μl TCM supplemented with 5 ng/ml IL-12 (PromoCell) for 3 days at 37° C. Half of the medium was then exchanged by fresh TCM supplemented with 80 U/ml IL-2 and incubating was continued for 4 days at 37° C. This stimulation cycle was performed for a total of three times. For the pMHC multimer readout using 8 different pMHC molecules per condition, a two-dimensional combinatorial coding approach was used as previously described (Andersen et al., 2012) with minor modifications encompassing coupling to 5 different fluorochromes. Finally, multimeric analyses were performed by staining the cells with Live/dead near IR dye (Invitrogen, Karlsruhe, Germany), CD8-FITC antibody clone SK1 (BD, Heidelberg, Germany) and fluorescent pMHC multimers. For analysis, a BD LSRII SORP cytometer equipped with appropriate lasers and filters was used. Peptide specific cells were calculated as percentage of total CD8+ cells. Evaluation of multimeric analysis was done using the FlowJo software (Tree Star, Oregon, USA). In vitro priming of specific multimer+CD8+ lymphocytes was detected by comparing to negative control stimulations.

HLA-A*02:01 = HLA-A*02:01 (Homo sapiens, UniProt P04439, D140Y/D185E/D98H/E176V/E277Q/G131W/G231S/I119V/I121R/I166T/I218V/L300P/L318F/N151K/N90K/P208A/P217A/Q86G/Q94H/R138H/R169H/T345S); assay: MHC binding assay (UV-ligand exchange, beta2m ELISA); settings: Table 11C, peptide exchange yield
Summary of the method: as §1

Row | Substance | Peptide exchange (HLA-B*44:05) | Peptide exchange (HLA-B*08:01) | Wells positive [%] [1] | Peptide exchange (HLA-A*02:01)
1 | 290 (EEFLTPKKL; listed as Homo sapiens) [compound 290] | +++ (≥50% = +++) |  |  | 
2 | 8 (FVRPKLVTI; listed as Homo sapiens) [compound 8] |  | +++ (50% = +++) | + (<20% = +) | 
3 | 62 (FMLAKEASL; listed as Homo sapiens) [compound 62] |  | ++ (20% = ++) | + (<20% = +) | 
4 | 57 (MPLKHYLL; listed as Homo sapiens) [compound 57] |  | ++ (20% = ++) | +++ (50%-69%= +++) | 
5 | 80 (EVYLRMYQL; listed as Homo sapiens) [compound 80] |  | +++ (50% = +++) | +++ (50%-69%= +++) | 
6 | 74 (RLKLRYEGL; listed as Homo sapiens) [compound 74] |  | +++ (50% = +++) | ++ (20%-49% = ++) | 
7 | 66 (DLKKTRVL; listed as Homo sapiens) [compound 66] |  | ++ (20% = ++) | + (<20% = +) | 
8 | 42 (VLRRKTLL; listed as Homo sapiens) [compound 42] |  | ++ (20% = ++) | + (<20% = +) | 
9 | 29 (ELFLHPVL; listed as Homo sapiens) [compound 29] |  | ++ (20% = ++) | ++ (20%-49% = ++) | 
10 | 36 (IVKIKVQEL; listed as Homo sapiens) [compound 36] |  | ++ (20% = ++) | ++ (20%-49% = ++) | 
11 | 291 (YVYANHFTEA; listed as Homo sapiens) [compound 291] |  |  |  | ++++ (≥75% = ++++)
12 | 60 (MLHIKKAEV; listed as Homo sapiens) [compound 60] |  | +++ (50% = +++) | + (<20% = +) | 
13 | 47 (HSRVKLAQL; listed as Homo sapiens) [compound 47] |  | ++ (20% = ++) | ++ (20%-49% = ++) | 
14 | 21 (RILKRFLAC; listed as Homo sapiens) [compound 21] |  | +++ (50% = +++) | + (<20% = +) | 
15 | 41 (RGALRTLSL; listed as Homo sapiens) [compound 41] |  | ++ (20% = ++) | + (<20% = +) | 
16 | 76 (HPRLKVNLL; listed as Homo sapiens) [compound 76] |  | +++ (50% = +++) | + (<20% = +) | 
17 | 86 (RPIHHPLVL; listed as Homo sapiens) [compound 86] |  | ++ (20% = ++) | + (<20% = +) | 
18 | 83 (FVLLRSVDL; listed as Homo sapiens) [compound 83] |  | +++ (50% = +++) | +++ (50%-69%= +++) | 
19 | 71 (HIRIKHTF; listed as Homo sapiens) [compound 71] |  | +++ (50% = +++) | ++ (20%-49% = ++) | 
